Where two headings read alike, the source gives them in different places. Blank lines part the entries; values can stand above or below the substance they belong to. Where no end group is shown, it is not given here.
What was measured:
[1] = target: formyl peptide receptor 1 (FPR1) on primary human polymorphonuclear neutrophils (human) (UniProt P21462); assay: cell-based or functional assay
[2] = target: formyl peptide receptor 1 (FPR1) on primary human polymorphonuclear neutrophils (human) (UniProt P21462); assay: cell-based or functional assay; remark: listed apart in the source
[3] = tested on: primary human polymorphonuclear neutrophil (PMN); assay: PMN chemotaxis (transwell, modified Boyden chamber); assay type: cell-based; details: for Relative Migration (PMN migration): relative to 10 nM fMLF (Table 4a)
Protocol: Chemotaxis is measured by observing primary human polymorphonuclear neutrophil (PMN) migration across transwell membranes (Corning #3415) towards antibody conjugates in a modified Boyden chamber assay. Approximately 2-4×10^5 cells from neutrophil-enriched preparations are seeded in upper transwell chambers on membranes with 3.0 um pores. The lower transwell chambers contain solutions of buffer alone and fMLF (N-formyl-Met-Leu-Phe peptide as positive control) and experimental antibody bioconjugates. […] Cell numbers are determined using standard curves. All data are transformed to percent relative to the maximal fMLF response for each individual experiment.

[4] = tested on: human primary PMNs; assay: PMN reactive oxygen species (ROS) production, luminol-amplified chemiluminescence; assay type: cell-based; details: relative to 10 uM fMLF, AUC 5 minutes (Table 8a)

PMN ROS production at 1 nM (percent relative to 1000 nM fMLF) [1]: 1.7%
PMN ROS production at 3 nM (percent relative to 1000 nM fMLF) [1]: 11.9%
PMN ROS production at 12 nM (percent relative to 1000 nM fMLF) [1]: 26.9%
PMN ROS production at 30 nM (percent relative to 1000 nM fMLF) [1]: 50%
PMN ROS production at 100 nM (percent relative to 1000 nM fMLF) [1]: 63.6%
PMN ROS production at 300 nM (percent relative to 1000 nM fMLF) [1]: 58.7%
PMN ROS production at 1000 nM (percent relative to 1000 nM fMLF) [1]: 51.8%
Substance: Emibetuzumab-G4-fMLFK-HC-124C-157C-378C (antibody)

EC50 of PMN ROS production [2]: 103 nM
PMN ROS production at 1 pM (percent relative to 10 uM fMLF) [2]: 6.9%
PMN ROS production at 10 pM (percent relative to 10 uM fMLF) [2]: 7.4%
PMN ROS production at 100 pM (percent relative to 10 uM fMLF) [2]: 7.5%
PMN ROS production at 1 nM (percent relative to 10 uM fMLF) [2]: 8.8%
PMN ROS production at 10 nM (percent relative to 3000 nM fMLF) [2]: 3.6%
PMN ROS production at 10 nM (percent relative to 10 uM fMLF) [2]: 31.3%
PMN ROS production at 30 nM (percent relative to 3000 nM fMLF) [2]: 12.2%
PMN ROS production at 100 nM (percent relative to 3000 nM fMLF) [2]: 49.9%
PMN ROS production at 100 nM (percent relative to 10 uM fMLF) [2]: 76.6%
PMN ROS production at 300 nM (percent relative to 3000 nM fMLF) [2]: 76.2%
PMN ROS production at 1 µM (percent relative to 10 uM fMLF) [2]: 94%
PMN ROS production at 1000 nM (percent relative to 3000 nM fMLF) [2]: 94.3%
PMN ROS production at 3000 nM (percent relative to 3000 nM fMLF) [2]: 99.5%
PMN ROS production at 10 µM (percent relative to 10 uM fMLF) [2]: 107%
PMN ROS production at 10000 nM (percent relative to 3000 nM fMLF) [2]: 89.1%
PMN migration at 1 nM (percent relative to 100 nM fMLF) [2]: 150%
PMN migration at 3 nM (percent relative to 100 nM fMLF) [2]: 167%
PMN migration at 10 nM (percent relative to 100 nM fMLF) [2]: 145%
PMN migration at 30 nM (percent relative to 100 nM fMLF) [2]: 118%
PMN migration at 100 nM (percent relative to 100 nM fMLF) [2]: 84.2%
PMN migration at 300 nM (percent relative to 100 nM fMLF) [2]: 50.4%
PMN migration at 1000 nM (percent relative to 100 nM fMLF) [2]: 33.6%
Substance: Peptide-'183, formyl-Met-Leu-Phe-Lys(Mal-PEG12)-OH with hydrolyzed maleimido group (unconjugated peptide)

Second part, the substance before the results:

Substance: Emibetuzumab-G4(PAA)-fMLFK-HC-378C (antibody)
PMN ROS production at 1 nM (percent relative to 1000 nM fMLF) [1]: 0.9%
PMN ROS production at 3 nM (percent relative to 1000 nM fMLF) [1]: 1.8%
PMN ROS production at 12 nM (percent relative to 1000 nM fMLF) [1]: 0.9%
PMN ROS production at 30 nM (percent relative to 1000 nM fMLF) [1]: 1.2%
PMN ROS production at 100 nM (percent relative to 1000 nM fMLF) [1]: 1%
PMN ROS production at 300 nM (percent relative to 1000 nM fMLF) [1]: 2.4%
PMN ROS production at 1000 nM (percent relative to 1000 nM fMLF) [1]: 2.8%
PMN ROS production at 1 nM (percent relative to 1000 nM fMLF) [2]: 25.8%
PMN ROS production at 2 nM (percent relative to 1000 nM fMLF) [2]: 27.7%
PMN ROS production at 3.9 nM (percent relative to 1000 nM fMLF) [2]: 28.2%
PMN ROS production at 7.8 nM (percent relative to 1000 nM fMLF) [2]: 27.3%
PMN ROS production at 15.6 nM (percent relative to 1000 nM fMLF) [2]: 29.6%
PMN ROS production at 31.3 nM (percent relative to 1000 nM fMLF) [2]: 24.5%
PMN ROS production at 62.5 nM (percent relative to 1000 nM fMLF) [2]: 23.4%
PMN ROS production at 125 nM (percent relative to 1000 nM fMLF) [2]: 23.5%
PMN ROS production at 250 nM (percent relative to 1000 nM fMLF) [2]: 23.9%
PMN ROS production at 500 nM (percent relative to 1000 nM fMLF) [2]: 38.3%
PMN ROS production at 1000 nM (percent relative to 1000 nM fMLF) [2]: 48.9%

Substance: H-Met-Leu-Phe-Lys (Mal-PEG12-OH (H-MLFK; not fully specified (residue 4)) [Peptide-'844]
concentration at which PMN migration is maximally induced [3]: 1 µM
Relative Migration (PMN migration) ([3]; 1 pM): 1.4%
Relative Migration (PMN migration) ([3]; 10 pM): 4.1%
Relative Migration (PMN migration) ([3]; 100 pM): 0.4%
Relative Migration (PMN migration) ([3]; 1 nM): 11.1%
Relative Migration (PMN migration) ([3]; 10 nM): 2.9%
Relative Migration (PMN migration) ([3]; 100 nM): 20.4%
Relative Migration (PMN migration) ([3]; 1 uM): 114.2%
Relative Migration (PMN migration) ([3]; 10 uM): 110.4%
fold less potent at inducing PMN migration than Peptide-'183 ([3]; dose response differences): 1000 fold
ROS Production by PMNs ([4]; 1 pM): 7.4 percentage
ROS Production by PMNs ([4]; 10 pM): 7.5 percentage
ROS Production by PMNs ([4]; 100 pM): 7.5 percentage
ROS Production by PMNs ([4]; 1 nM): 8.4 percentage
ROS Production by PMNs ([4]; 10 nM): 7.8 percentage
ROS Production by PMNs ([4]; 100 nM): 8.2 percentage
ROS Production by PMNs ([4]; 1 μM): 8.7 percentage
ROS Production by PMNs ([4]; 10 μM): 23.5 percentage

Substance: Emibetuzumab-G4(PAA)-fMLFK-HC-124C-162C-378C (antibody)
PMN ROS production at 1 nM (percent relative to 1000 nM fMLF) [1]: 1.2%
PMN ROS production at 3 nM (percent relative to 1000 nM fMLF) [1]: 6.1%
PMN ROS production at 12 nM (percent relative to 1000 nM fMLF) [1]: 17.8%
PMN ROS production at 30 nM (percent relative to 1000 nM fMLF) [1]: 38.4%
PMN ROS production at 100 nM (percent relative to 1000 nM fMLF) [1]: 52.7%
PMN ROS production at 300 nM (percent relative to 1000 nM fMLF) [1]: 54.2%
PMN ROS production at 1000 nM (percent relative to 1000 nM fMLF) [1]: 42.3%
